Experimental data taken from patent US8785185B2, “Differentiation of human embryonic stem cells” (Janssen Biotech, Inc., priority 2009, dated 2014).

B1: activin A (protein, UniProt P08476 311-426, looked up)
Inhibin beta A chain: GLECDGKVNICCKKQFFVSFKDIGWNDWIIAPSGYHANYCEGECPSHIAGTSGSSLSFHSTVINHYRMRGHSPFANLKSCCVPTKLRPMSMLYYDDGQNIIKKDIQNMIVEECGCS
modifications: Inhibin beta A chain
notes: a member of the TGF-β superfamily (R&D Systems)

Tests used:
Assay type in all cases: cell-based
[1] = system: human embryonic stem cell line H1; assay: Real-time PCR of pancreatic markers at stage 3 day 4, Treatments 1-3 (Table 1); conditions: normalized to treatment 1, stage 3 treatment for four days
Protocol: (§1) RPMI medium (Catalogue #22400, Invitrogen, Ca) supplemented with 2% BSA (Catalog #152401, MP Biomedical, Ohio), and 100 ng/ml activin A (R&D Systems, MN) plus 20 ng/ml WNT-3a (Catalog #1324-WN-002, R&D Systems, MN) plus 8 ng/ml of bFGF (Catalog #100-18B, PeproTech, NJ), for one day followed by treatment with RPMI media supplemented with 2% BSA and 100 ng/ml activin A plus 8 ng/ml of bFGF for an additional two days (Stage 1), then • b. DMEM/F12 (Catalogue #11330, Invitrogen, Ca)+2% BSA+50 ng/ml FGF7 for three days (Stage 2), then • c. Either Treatment 1: DMEM (high glucose)+1% B27 (Invitrogen, CA)+50 ng/ml FGF7, 0.25 μM Cyclopamine-KAAD, 2 μM retinoic acid (RA) and 100 ng/ml of Noggin for four days, or • d. Treatment 2: DMEM (high glucose)+1% B27 (Invitrogen, CA)+50 ng/ml FGF7, 0.25 μM Cyclopamine-KAAD, 2 μM retinoic acid (RA), 100 ng/ml of Noggin, 20 ng/ml activin A, for four days, or • e. Treatment 3: DMEM (high glucose)+1% B27 (Invitrogen, CA)+50 ng/ml FGF7, 0.25 μM Cyclopamine-KAAD, 2 μM retinoic acid (RA), 100 ng/ml of Noggin, 1 μM ALK5 inhibitor II, for four days.
(§2) Cultures were sampled in duplicate on stage 3 day 4, and analyzed for expression of pancreatic markers using real-time PCR. Cultures also were fixed in parallel for immunofluorescence analysis.

[2] = system: human embryonic stem cell line H1; assay: Immunofluorescence analysis of marker expression at stage 3 day 4 (FIG. 2, FIG. 3)
Protocol: as §1, §2
Treatment 1 (FGF7, retinoic acid and Noggin) induced the expression of NKX6.1 and NGN3.
This is in contrast with PDX1 expressing cells generated by using DMEM/F12 supplemented with 1% B27 (Invitrogen, CA)+50 ng/ml FGF7, 0.25 μM Cyclopamine-KAAD, 2 μM retinoic acid (RA), 100 ng/ml of Noggin, 20 ng/ml activin A, wherein most PDX1 expressing cells also expressed CDX2.

[3] = system: human embryonic stem cell line H1; assay: Real-time PCR of pancreatic markers at stage 3 day 4, activin A 20 or 50 ng/ml added at stage 3 (FIG. 1); conditions: 20 or 50 ng/ml activin A with FGF7, cyclopamine-KAAD, retinoic acid, Noggin
Protocol: Briefly, cells of the human embryonic stem cell line H1 were cultured on MATRIGEL™ (1:30 dilution) coated dishes and RPMI medium supplemented with 2% BSA, 100 ng/ml activin A, 20 ng/ml WNT-3a, 8 ng/ml of bFGF for one day, followed by treatment with RPMI media supplemented with 2% BSA, 100 ng/ml activin A, 8 ng/ml of bFGF for an additional two days (Stage 1), then • a. DMEM/F12+2% BSA+50 ng/ml FGF7+0.25 μM Cyclopamine-KAAD for three days (Stage 2), then • b. DMEM-High glucose+1% B27+50 ng/ml FGF7+0.25 μM Cyclopamine-KAAD+2 μM Retinoic acid (RA)+100 ng/ml of Noggin+20 ng/ml activin A or 50 ng/ml activin A for four days (Stage 3).
As a control, separate populations of cells were treated with DMEM High glucose, supplemented with 1% B27, 50 ng/ml FGF7, 0.25 μM Cyclopamine-KAAD, 2 μM retinoic acid (RA), and 100 ng/ml of Noggin.
Cultures were sampled in duplicate on stage 3 day 4, and analyzed for expression of pancreatic markers using real-time PCR.
A down-regulation of NGN3 expression was also observed in the cells at stage 3 day 4.

Molecule	relative expression level of NKX6.1 [1]	relative expression level of PDX1 [1]	expression of NGN3 / number of NGN3 expressing cells [2]	expression of NKX6.1 / number of NKX6.1 expressing cells [2]	NGN3 expression [3]	NKX6.1 expression ([3]; real-time PCR, versus cells receiving no activin A)
Cc1cccc(-c2[nH]ncc2-c2ccc3ncccc3n2)n1 [ALK5 inhibitor II]	decrease	No significant impact	significantly increased			
B1			blocked	significantly increased	down-regulation	increase
